Consider one molecule from paper PMC3084709, “TMEFF2 Is a PDGF-AA Binding Protein with Methylation-Associated Gene Silencing in Multiple Cancer Types Including Glioma” (PLoS ONE, 2011).

The target in the test is T1, recombinant human PDGF receptor α extracellular domain (PDGF sRα) (human, UniProt P16234 24-528, biotin (biotin-X-NHS) in the direct-binding ELISA on PDGF-coated wells; not said to be biotinylated in the blocking ELISA).
T1 construct: PDGF receptor α, human, extracellular domain; also called soluble PDGF receptor α; sRα-bio; source: bought: R&D Systems
The test can be described thus: ELISA; serially diluted biotinylated PDGF sRα added to PDGF-coated wells; detected with streptavidin-HRP. The note with it: both partners purified. On the technique in general: ELISA stands for enzyme-linked immunosorbent assay.

T1 sequence (P16234 24-528): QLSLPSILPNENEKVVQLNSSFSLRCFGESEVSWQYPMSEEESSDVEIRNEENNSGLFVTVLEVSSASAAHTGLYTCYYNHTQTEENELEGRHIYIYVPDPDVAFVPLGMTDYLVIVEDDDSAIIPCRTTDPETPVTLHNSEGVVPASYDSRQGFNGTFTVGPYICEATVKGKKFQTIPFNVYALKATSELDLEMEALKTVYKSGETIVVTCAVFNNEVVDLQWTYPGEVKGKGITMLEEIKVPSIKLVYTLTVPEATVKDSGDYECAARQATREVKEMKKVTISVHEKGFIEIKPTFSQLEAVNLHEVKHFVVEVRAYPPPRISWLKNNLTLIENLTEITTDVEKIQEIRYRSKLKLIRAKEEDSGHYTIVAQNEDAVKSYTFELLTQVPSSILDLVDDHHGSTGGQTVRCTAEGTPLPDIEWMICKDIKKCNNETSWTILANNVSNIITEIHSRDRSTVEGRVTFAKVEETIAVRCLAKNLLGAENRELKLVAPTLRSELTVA

B1: recombinant human PDGF-BB (ligand, UniProt P01127 82-190, looked up)
chain: SLGSLTIAEPAMIAECKTRTEVFEISRRLIDRTNANFLVWPPCVEVQRCSGCCNNRNVQCRPTQVQLRPVQVRKIEIVRKKPIFKKATVTLEDHLACKCETVAAARPVT
notes: PDGF-B chain, human; homodimer; source: bought: R&D Systems
Turning to B1, the binding result is given as “binds”.
